Results published in PMC3418248 (2012).

B1: SepF [B. subtilis] / Halo-ZC (HaloTag fused to the final 69 amino acids of B. subtilis FtsZ) [B. subtilis] (parent complex)
chain 1: MSMKNKLKNFFSMEDEEYEYEYIETERESHEEHEQKEKPAYNGNKPAGKQNVVSLQSVQKSSKVVLSEPRVYAEAQEIADHLKNRRAVVVNLQRIQHDQAKRIVDFLSGTVYAIGGDIQRIGSDIFLCTPDNVDVSGTISELISEDEHQRW
chain 2: GFIEQEKDVTKPQRPSLNQSIKTHNQSVPKREPKREEPQQQNTVSRHTSQPADDTLDIPTFLRNRNKRG

Variants of: B1
Test: pull-down (HaloTag bait), densitometric scanning of Coomassie-stained gels; read off a plot

Variant | screen value
chain 2 T55A | ~0.83
chain 2 I58A | ~0.35
chain 2 T60A | ~0.66
chain 2 R65A | ~0.42
chain 2 N66A | ~0.74
chain 2 K67A | ~0.51
chain 2 F61A | ~0.03
chain 2 D54A | ~0.9
chain 2 R68A | ~0.46
chain 2 D57A | ~0.53
chain 2 P59A | ~0.04
chain 2 G69A | ~0.69
